The values below come from publication PMC5261137 (Proteins, 2016).

In this test the target is T1, SipD^C244S (residues 39-343 C244S) (Salmonella, UniProt Q56026 39-343, C244S).
T1 sequence: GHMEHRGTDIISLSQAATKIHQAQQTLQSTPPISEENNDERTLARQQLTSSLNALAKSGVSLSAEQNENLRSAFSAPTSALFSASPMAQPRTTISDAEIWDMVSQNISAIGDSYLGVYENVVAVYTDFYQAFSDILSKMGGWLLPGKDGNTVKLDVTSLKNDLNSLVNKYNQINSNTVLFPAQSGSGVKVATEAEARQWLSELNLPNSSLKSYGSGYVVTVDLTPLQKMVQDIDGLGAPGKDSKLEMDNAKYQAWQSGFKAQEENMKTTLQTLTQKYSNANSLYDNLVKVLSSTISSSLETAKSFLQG
The test is described as follows: NMR titration.

B1: SipB^11-232 (domain or fragment)
chain: SGYTQNPRLAEAAFEGVRKNTDFLKAADKAFKDVVATKAGDLKAGTKSGESAINTVGLKPPTDAAREKLSSEGQLTLLLGKLMTLLGDVSLSQLESRLAVWQAMIESQKEMGIQVSKEFQTALGEAQEATDLYEASIKKTDTAKSVYDAATKKLTQAQNKLQSLDPADPGYAQAEAAVEQAGKEATEAKEALDKATDATVKAGTDAKAKAEKADNILTKFQG
For B1, the binding result is recorded as “binds”.
